For the test, the target named is tPA (Homo sapiens, UniProt P00750). As to the kind of experiment: 15-amino acid segment bound to a chromatographic support: tPA binding. Particulars: initial studies. From the text:
As noted above, almost all of the variegation in amino acid positions used in building the CMTI library occurred between two cyteines at positions 3 and 10 of CMTI-I (see Table 3). In the parental CMTI protein, these cysteines form disulfide bonds with other cysteine residues elsewhere in the protein (see SEQ ID NO: 1), however with the successful isolation of affinity ligands from the CMTI library, a secondary library was conceptualized which was based on variegating a truncated 15-amino acid segment of the isolate #109 (see amino acids 1–15 of SEQ ID NO: 12). If the C3 and C10 cysteines of these members formed a disulfide bond, then a constrained loop having tPA binding properties might be obtained.

Positions of bridges follow the written chain, without caps; N, C: chain ends. No end group written: not given here.

Sequence of tPA (P00750 36-562): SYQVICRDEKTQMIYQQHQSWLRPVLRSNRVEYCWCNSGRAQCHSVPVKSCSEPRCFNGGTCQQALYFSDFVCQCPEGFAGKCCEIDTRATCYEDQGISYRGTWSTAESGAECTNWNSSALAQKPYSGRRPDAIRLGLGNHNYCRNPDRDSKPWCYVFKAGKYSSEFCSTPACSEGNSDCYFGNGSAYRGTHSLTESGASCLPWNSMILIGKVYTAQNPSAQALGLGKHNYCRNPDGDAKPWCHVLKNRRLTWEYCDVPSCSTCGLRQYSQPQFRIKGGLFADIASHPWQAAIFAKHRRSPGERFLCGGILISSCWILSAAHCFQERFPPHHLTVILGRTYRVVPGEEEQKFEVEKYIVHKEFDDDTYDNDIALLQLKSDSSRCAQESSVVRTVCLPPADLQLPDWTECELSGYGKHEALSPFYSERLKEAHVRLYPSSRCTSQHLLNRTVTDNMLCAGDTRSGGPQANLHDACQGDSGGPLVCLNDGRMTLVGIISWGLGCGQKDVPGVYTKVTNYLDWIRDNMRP

As for “15-amino acid segment derived from affinity ligand isolate #109: truncated 15-amino acid segment of isolate #109 (amino acids 1–15 of SEQ ID NO: 12), C3–C10 disulfide loop (RLCPKTDLGCMKDSD; disulfide 3-10)”, the “binding of the immobilized C3–C10 loop to tPA” value is “bound to tPA”.

These data come from patent publication US7074560B2, “Purification of tissue plasminogen activator (tPA)” (Dyax Corp., priority 1996, dated 2006).
